Measured values published in PMC1635293.
Like-named read-outs stand apart in the source and are kept apart here.

Legend:
Experiment in all cases: competition
[1] = biological target: Exportin-5 (dmExp5);dmRanQ69L (GTP form) (Drosophila melanogaster?;Drosophila, UniProt Q9BP41;Q9VZ23 1-1241;1-216, |Q69L)
[2] = biological target: T1, Msn5p (yeast exportin-5 orthologue);Gsp1pQ71L (GTP form) (budding yeast;yeast, UniProt P52918;P32835 1-1224;1-219, |Q71L)
[3] = biological target: T2, Exportin-5 (hsExp5);hsRanQ69L (GTP form) (human;human, UniProt Q9HAV4;P62826 1-1204;1-216, |Q69L)
[4] = biological target: T1, Msn5p (yeast exportin-5 …); remark: listed apart in the source
[5] = biological target: T2, Exportin-5 (hsExp5);hsRanQ69L (GTP form); remark: listed apart in the source

T2 sequence (Q9HAV4 whole entry Q69L, one chain of several): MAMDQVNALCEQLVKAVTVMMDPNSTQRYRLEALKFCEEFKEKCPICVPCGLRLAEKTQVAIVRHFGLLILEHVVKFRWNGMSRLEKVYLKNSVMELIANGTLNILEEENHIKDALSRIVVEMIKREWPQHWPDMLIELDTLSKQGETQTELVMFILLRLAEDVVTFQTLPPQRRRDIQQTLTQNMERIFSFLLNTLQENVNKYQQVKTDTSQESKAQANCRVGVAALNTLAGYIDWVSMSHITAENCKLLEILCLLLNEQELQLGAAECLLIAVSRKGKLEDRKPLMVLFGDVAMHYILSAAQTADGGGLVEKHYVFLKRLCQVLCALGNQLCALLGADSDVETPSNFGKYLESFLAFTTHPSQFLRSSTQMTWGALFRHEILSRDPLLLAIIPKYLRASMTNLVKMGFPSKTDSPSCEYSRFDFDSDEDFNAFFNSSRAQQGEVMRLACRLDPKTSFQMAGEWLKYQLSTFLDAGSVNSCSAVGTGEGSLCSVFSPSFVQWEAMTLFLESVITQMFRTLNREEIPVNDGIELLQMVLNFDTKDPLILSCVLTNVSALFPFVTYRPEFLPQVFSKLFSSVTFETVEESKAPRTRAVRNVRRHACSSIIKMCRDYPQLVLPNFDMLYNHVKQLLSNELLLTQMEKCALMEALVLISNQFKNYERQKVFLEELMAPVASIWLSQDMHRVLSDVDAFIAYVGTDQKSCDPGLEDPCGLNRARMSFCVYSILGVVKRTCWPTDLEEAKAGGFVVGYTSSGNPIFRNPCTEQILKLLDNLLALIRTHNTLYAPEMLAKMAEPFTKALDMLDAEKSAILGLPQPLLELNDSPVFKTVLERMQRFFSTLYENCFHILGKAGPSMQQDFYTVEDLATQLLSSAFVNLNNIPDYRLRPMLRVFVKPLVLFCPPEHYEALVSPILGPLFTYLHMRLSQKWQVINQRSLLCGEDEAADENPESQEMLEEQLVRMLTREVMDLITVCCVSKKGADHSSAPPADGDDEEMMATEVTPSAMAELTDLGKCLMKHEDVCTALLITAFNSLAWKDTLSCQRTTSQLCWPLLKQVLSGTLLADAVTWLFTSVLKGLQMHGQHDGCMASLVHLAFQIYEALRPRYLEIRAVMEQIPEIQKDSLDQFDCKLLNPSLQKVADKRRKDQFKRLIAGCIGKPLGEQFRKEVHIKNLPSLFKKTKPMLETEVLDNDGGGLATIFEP

B1: dsDNA encoding the same sequence as the dsRNA (dsDNA)
DNA 1: GGGCTTTCAGTCGGATGTTTGCAGC
DNA 2: TGCAAACATCCGACTGAAAGC
Does B1 bind [1]?
Result: no binding

Does B1 bind [2]?
Result: no binding

Does B1 bind [3]?
Result: no binding

B2: dsRNA with 2 nt 5' overhang (dsRNA)
RNA 1: GGGCUUUCAGUCGGAUGUUUG
RNA 2: UGCAAACAUCCGACUGAAAGC
What does the source list for B2?
binding result [4]: no binding; binding result [5]: no binding

B3: dsRNA with 2 nt 3' overhang (22 bp dsRNA) (dsRNA)
RNA 1: GGGCUUUCAGUCGGAUGUUUGCAGC
RNA 2: UGCAAACAUCCGACUGAAAGC
Does B3 bind [1]?
Result: binds

Does B3 bind [3]?
Result: binds
